According to article PMC7437355 (2020):

Assays:
[1] = target: T1, SPRED1(EVH1), SPRED1(13–125), wild type (ITC) (human, UniProt Q7Z699 13-125); experiment: ITC
T1 chain: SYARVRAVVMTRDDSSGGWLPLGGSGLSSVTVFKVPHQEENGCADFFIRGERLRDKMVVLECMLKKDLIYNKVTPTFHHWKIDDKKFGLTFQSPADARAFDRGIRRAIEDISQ

[2] = target: KRAS4b(1–169), wild type, GMPPNP-bound (UniProt P01116-2 1-169); experiment: ITC; GMPPNP

- Kd [1]: 0.26 µM
- Kd [2]: 4 µM
B1: NF1 isoform I (GRD containing additional 23 residues) (domain or fragment)
chain: DRFERLVELVTMMGDQGELPIAMALANVVPCSQWDELARVLVTLFDSRHLLYQLLWNMFSKEVELADSMQTLFRGNSLASKIMTFCFKVYGATYLQKLLDPLLRIVITSSDWQHVSFEVDPTRLEPSESLEENQRNLLQMTEKFFHAIISSSSEFPPQLRSVCHCLYQATCHSLLNKATVKEKKENKKSVVSQRFPQNSIGAVGSAMFLRFINPAIVSPYEAGILDKKPPPRIERGLKLMSKILQSIANHVLFTKEEHMRPFNDFVKSNFDAARRFFLDIASDCPTSDAVNHSLSFISDGNVLALHRLLWNNQEKIGQYLSSNRDHKAVGRRPFDKMATLLAYLGPPEH
